Source: publication PMC12116771

Legend:
[1] = system: Scd6 (His-Scd6-FLAG, unmethylated) (Saccharomyces cerevisiae); assay: EMSA; settings: EMSA: 10 mM Tris pH 8, 50 mM NaCl, 0.05% NP-40, 6% glycerol, 1 mM DTT, 2 ug/ml BSA, 0.5 ug/ml tRNA, 30 C 30 min; 2.5% agarose, 1x MOPS, EtBr
[2] = system: Scd6 (His-Scd6-FLAG), arginine-methylated in vitro by Hmt1 (Saccharomyces cerevisiae); assay: EMSA; settings: EMSA: 10 mM Tris pH 8, 50 mM NaCl, 0.05% NP-40, 6% glycerol, 1 mM DTT, 2 ug/ml BSA, 0.5 ug/ml tRNA, 30 C 30 min; 2.5% agarose, 1x MOPS, EtBr

SRS2 5'UTR 200-mer RNA was tested, and the Kd [1] was 2860 nM and the Kd [2] was 2700 nM.
